Assay results as given in PMC6933771.

Target: human prothrombin (human)

Substance: staphylocoagulase (natural protein)
- amidolytic activity of the SCG-PT complex on the chromogenic thrombin substrate S-2238, specific activity relative to human thrombin (9.1 IU/nmol): 5.5 IU/nmol
- clotting activity of the SCG-PT complex in human plasma, specific activity relative to human thrombin: 4.2 IU/nmol
- clotting activity of the SCG-PT complex on purified human fibrinogen (3.0 g/L), specific activity relative to human thrombin: 3.6 IU/nmol
